According to patent publication US20230279119A1 (published 2023):

B1: C6D4 scFv (scFv, V domains shown)
VH: QIQLVQSGPELKKPGETVKISCKASGYTFTDYSMHWVKQAPGKGLKWVARINTETGEPTFADDFRGRFAVSLETSASTAYLQINNLKNEDTATYFCAIFYYGRDSWGQGTTLTVSS
VL: DIVMTQSPSSLAVSAGEKVTMSCKSSQSLLNSRTRKNYLAWYQQKPGQSPRLLIYWASTRESGVPDRFTGSGSGTDFTLTISSVQAEDLAVYYCKQSYNLLSFGAGTKLELK
notes: not shown: The scFv linker, the domain order, and the yeast-display partner and tags (vector pYD4)
B2: HuC6D4F12 scFv (scFv, V domains shown)
VH: QIQLVQSGAEVKKPGASVKISCKASGYTFTKYSMHWVRQAPGQGLEWVARINTETGEPTFADDFRGRFTVTLDTSTSTAYLEIRSLRSDDTAVYFCAIFYYGRDTWGQGTTLTVSS
VL: EIVMTQSPATLSVSPGERVTMSCKSSQSLLHSRSRKNYLAWYQQKPGQAPRLLIYWASTRESGVPARFSGSGSGTEFTLTISSVQSEDFAVYYCKQSYNLLSFGQGTVLEIK
notes: as for B1

Biological target: T1, recombinant αvβ8 ectodomain (UniProt P06756 31-992; P26012 43-684, limits assumed)
T1 construct: extracellular domain; the ELISA and TMLC assays say only 'recombinant αvβ8'; also called immobilized αvβ8; integrin αvβ8
Assay: scFv KD; method not stated (yeast-displayed scFv library was sorted with recombinant αvβ8 ectodomain)

T1 sequence (P06756 31-992 limits assumed, chain 1 of 2): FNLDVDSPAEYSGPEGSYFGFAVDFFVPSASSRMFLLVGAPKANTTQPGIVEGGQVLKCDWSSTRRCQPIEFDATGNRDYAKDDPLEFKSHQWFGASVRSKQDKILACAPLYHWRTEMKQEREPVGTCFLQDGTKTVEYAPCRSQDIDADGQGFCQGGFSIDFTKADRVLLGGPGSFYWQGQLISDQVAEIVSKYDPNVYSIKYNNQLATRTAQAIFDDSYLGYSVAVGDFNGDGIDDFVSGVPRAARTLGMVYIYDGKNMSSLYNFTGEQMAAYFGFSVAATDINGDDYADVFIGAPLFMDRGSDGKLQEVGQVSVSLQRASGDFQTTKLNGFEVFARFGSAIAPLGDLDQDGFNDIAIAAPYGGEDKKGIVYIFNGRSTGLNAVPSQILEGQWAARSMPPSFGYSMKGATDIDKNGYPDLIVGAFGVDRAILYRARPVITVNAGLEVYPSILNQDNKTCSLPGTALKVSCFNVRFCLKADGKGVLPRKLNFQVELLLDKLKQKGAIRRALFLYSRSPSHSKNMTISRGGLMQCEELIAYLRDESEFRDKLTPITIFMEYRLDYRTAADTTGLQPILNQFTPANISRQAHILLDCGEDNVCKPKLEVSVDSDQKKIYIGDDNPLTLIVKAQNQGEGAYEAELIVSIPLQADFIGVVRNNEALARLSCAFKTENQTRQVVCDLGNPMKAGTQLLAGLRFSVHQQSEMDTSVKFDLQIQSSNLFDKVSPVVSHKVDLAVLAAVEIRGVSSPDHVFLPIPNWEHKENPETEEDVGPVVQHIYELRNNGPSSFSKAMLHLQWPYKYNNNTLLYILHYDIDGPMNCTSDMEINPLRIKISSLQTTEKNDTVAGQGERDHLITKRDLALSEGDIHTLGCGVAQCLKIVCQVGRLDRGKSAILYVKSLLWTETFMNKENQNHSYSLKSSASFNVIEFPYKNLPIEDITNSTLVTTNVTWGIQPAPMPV
T1 sequence (P26012 43-684 limits assumed, chain 2 of 2): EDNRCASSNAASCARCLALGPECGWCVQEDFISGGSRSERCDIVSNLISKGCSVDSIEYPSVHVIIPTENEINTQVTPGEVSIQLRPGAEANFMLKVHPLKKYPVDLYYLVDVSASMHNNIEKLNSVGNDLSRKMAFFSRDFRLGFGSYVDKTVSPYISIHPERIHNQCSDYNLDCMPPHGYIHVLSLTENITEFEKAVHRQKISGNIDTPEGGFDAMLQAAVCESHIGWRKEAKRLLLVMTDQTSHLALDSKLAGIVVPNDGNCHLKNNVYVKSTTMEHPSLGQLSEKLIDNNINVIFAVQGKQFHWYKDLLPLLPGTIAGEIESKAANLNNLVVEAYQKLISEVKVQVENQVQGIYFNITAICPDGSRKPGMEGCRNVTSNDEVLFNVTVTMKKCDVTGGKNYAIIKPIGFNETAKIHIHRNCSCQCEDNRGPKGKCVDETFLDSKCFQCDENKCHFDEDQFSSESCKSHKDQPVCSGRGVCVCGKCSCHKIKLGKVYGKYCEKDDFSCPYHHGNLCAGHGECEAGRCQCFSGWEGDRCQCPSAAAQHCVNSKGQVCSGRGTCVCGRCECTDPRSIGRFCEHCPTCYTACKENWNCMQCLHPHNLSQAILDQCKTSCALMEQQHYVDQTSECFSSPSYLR

Row | Binder | Kd
1 | B1 | 7.25 nM
2 | B2 | 0.39 nM
